The target of assay [1] is MFG-E8-Ig (mouse) (UniProt P21956). Nature of the assay: SEC. For orientation: In gel filtration, larger molecules generally elute earlier.
Assay [2] has as its target RGE-MFG-E8-Ig (mouse) (UniProt P21956). The experiment in a line: SEC.

“MFG-E8-Ig (from UniProt P21956 23-148) (Fc fusion)” registered a stoichiometry N in assay [1] of 2.
As for “RGE-MFG-E8-Ig (from UniProt P21956 23-148) (Fc fusion)”, the stoichiometry N in assay [2] came out at 2.

As a reminder, the stoichiometry N is the number of molecules, sites or subunits per partner or assembly.

Values taken from paper PMC6999705.
